For one molecule, koff results are on record in publication doi:10.1101/2020.12.03.409995 (2020).

Assay [1] addresses T1, Biotin-Aβ42 oligomers (human, UniProt P05067 672-713, biotin (position not given)). Nature of the assay: BLI; koff1 (first site). A general note: BLI is a label-free optical method that tracks binding on a fibre tip over time.
Assay [2] deals with T1, Biotin-Aβ42 oligomers. Nature of the assay: BLI; koff2 (second site).

B1: wild-type sTREM2 (TREM2 ectodomain, residues 19-143, His-tagged) (domain or fragment)
chain: HNTTVFQGVAGQSLQVSCPYDSMKHWGRRKAWCRQLGEKGPCQRVVSTHNLWLLSFLRRWNGSTAITDDTLGGTLTITLRNLQPHDAGLYQCQSLHGSEADTLRKVLVEVLADPLDHRDAGDLWF
In the case of B1, the results for the koff in assay [1] and in assay [2] were 0.435 s⁻¹ and 0.00772 s⁻¹, respectively.
